Experimental data as given in US20060040325A1 (AstraZeneca / MedImmune, published 2006).

B1: 3F2 (wild type anti-EphA2 antibody, IgG1) (antibody)
heavy: not shown
VL: AIQLTQSPSSLSASVGDRVTITCRASQSISNNLHWYLQKPGQSPQLLIYYGFQSISGVPSRFSGSGSGTDFTLTISSLQPEDFATYYCQQANSWPLTFGGGTKLEIK
notes: domain: IgG1 heavy chain constant region; 3F2 variable regions placed in the Vitaxin® IgG1 plasmid and made in NS0 cells; The light chain constant region is not described; also called 3F2-wt; 3F2-WT; copies: 2 + 2
B2: 3F2-1M (3F2 Fc variant I332E, IgG1) (antibody, name in EU numbering)
heavy: not shown
VL: B1 VL
notes: domain: IgG1 heavy chain constant region; Made in NS0 cells; The light chain constant region is not described; also called 3F2 I332E; 3F2-IM; copies: 2 + 2
B3: 3F2-3M (3F2 Fc variant S239D/A330L/I332E, IgG1) (antibody, name in EU numbering)
heavy: EVQLVESGGGVVRPGGSLRLSCAASGFTVSDYSMNWVRQAPGKGLEWIGFIRNKANAYTTEYSASVKGRFTISRDDSKNTLYLQMNSLKTEDTAVYYCTTYPRYHAMDSWGQGTMVTVSSASTKGPSVFPLAPSSKSTSGGTAALGCLVKDYFPEPVTVSWNSGALTSGVHTFPAVLQSSGLYSLSSVVTVPSSSLGTQTYICNVNHKPSNTKVDKKVEPKSCDKTHTCPPCPAPELLGGPDVFLFPPKPKDTLMISRTPEVTCVVVDVSHEDPEVKFNWYVDGVEVHNAKTKPREEQYNSTYRVVSVLTVLHQDWLNGKEYKCKVSNKALPLPEEKTISKAKGQPREPQVYTLPPSRDELTKNQVSLTCLVKGFYPSDIAVEWESNGQPENNYKTTPPVLDSDGSFFLYSKLTVDKSRWQQGNVFSCSVMHEALHNHYTQKSLSLSPGK
VL: B1 VL
notes: domain: IgG1 heavy chain constant region; Made in NS0 cells; The light chain constant region is not described; also called 3F2 S239D/A330L/I332E; 3M Fc variant; copies: 2 + 2

What was measured:
[1] = biological target: T1, FcγRIIIA-streptavidin fusion protein (tetramer) (human; Streptomyces avidinii, UniProt P08637 17-208); assay: ELISA: antibody captured on protein A/G, FcγRIIIA tetramer, biotin-HRP, OD450
T1 construct: extracellular domain; also called FcγRIIIA tetramer; Fcγtetramer; not shown: streptavidin, amplified with primers SA1/SA2 from genomic DNA of Streptomyces avidinii
T1 sequence (P08637 17-208 limits assumed): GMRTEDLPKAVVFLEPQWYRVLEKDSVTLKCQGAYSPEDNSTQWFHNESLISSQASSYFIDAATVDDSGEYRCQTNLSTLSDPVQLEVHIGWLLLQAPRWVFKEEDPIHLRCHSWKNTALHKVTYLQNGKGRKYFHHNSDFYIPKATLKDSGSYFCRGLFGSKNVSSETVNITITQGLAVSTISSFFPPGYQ
Procedure: ELISA for FcγRIIIA Tetramer Binding: Microtiter plates were coated with protein A/G (PIERCE) solution (0.25 μg/ml) and incubated at 4° C. overnight. The plates were then washed with PB S/0.1% Tween and any remaining binding sites were blocked with 1% BSA. 50 μl of test antibody at 1:1 dilution (from 5000 ng/ml to 4.9 ng/ml), was added to each well and inclubated for 60 min at 37° C. 50 μl of 1:500 dilution of the Fcγtetramer was added to each well and incubated for 60 min at 37° C. followed by washing. 50 μl of 1:1000 dilution of biotin-conjugated HRP (PIERCE) was added to each well and incubated for 30 min at 37° C. Detection was carried out by adding 30 μl of tetramethylbenzidine (TMB) substrate (Pierce) followed by neutralization with 30 μl of 0.2 M H₂SO₄. The absorbance was read at 450 nm.

[2] = biological target: T2, human C1q complement protein (human, UniProt P02745 23-245; P02746 28-253; P02747 29-245); assay: ELISA: antibody coated on the plate, human C1q, anti-C1q antibody, HRP conjugate, OD450
T2 construct: Bought protein ('Quidal, SanDiego')
T2 sequence (P02745 23-245 limits assumed, chain 1 of 3): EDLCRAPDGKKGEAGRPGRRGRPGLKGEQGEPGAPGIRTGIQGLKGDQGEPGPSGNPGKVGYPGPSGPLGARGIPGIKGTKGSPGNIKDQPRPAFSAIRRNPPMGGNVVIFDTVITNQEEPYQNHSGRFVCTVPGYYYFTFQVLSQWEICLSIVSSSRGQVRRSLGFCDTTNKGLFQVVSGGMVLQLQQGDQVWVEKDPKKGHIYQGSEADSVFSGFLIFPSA
T2 sequence (P02746 28-253 limits assumed, chain 2 of 3): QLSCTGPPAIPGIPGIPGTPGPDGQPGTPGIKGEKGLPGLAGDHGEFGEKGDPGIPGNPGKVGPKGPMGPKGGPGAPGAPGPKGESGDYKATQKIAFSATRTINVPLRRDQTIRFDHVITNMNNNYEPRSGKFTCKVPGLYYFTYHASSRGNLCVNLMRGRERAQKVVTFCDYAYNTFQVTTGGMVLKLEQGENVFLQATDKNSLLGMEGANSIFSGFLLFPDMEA
T2 sequence (P02747 29-245 limits assumed, chain 3 of 3): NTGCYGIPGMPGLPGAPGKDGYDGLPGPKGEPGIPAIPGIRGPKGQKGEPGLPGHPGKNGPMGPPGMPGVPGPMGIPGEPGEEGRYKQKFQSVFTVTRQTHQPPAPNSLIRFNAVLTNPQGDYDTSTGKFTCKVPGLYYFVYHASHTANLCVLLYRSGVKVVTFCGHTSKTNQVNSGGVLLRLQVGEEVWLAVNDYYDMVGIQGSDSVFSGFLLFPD
Procedure: ELISA for C1q Binding: Microtiter plates were coated with 50 μl of test antibody at concentration range from 20 μg/ml to […] and incubated at 4° C. overnight. The plate was then blocked with 5% nonfat powdered milk for 60 min at 37° C. 50 μl of 5 μg/ml human C1q complement protein (Quidal, SanDiego) was added to each well and inclubated for 60 min at 37° C. 50 μl of 1:1000 dilution of anti-complement C1q antibody (Biodesign) was added to each well and incubated for 60 min at 37° C. 50 μl of 1:1000 dilution of donkey anti-sheep/goat antibody-conjugated HRP (PIERCE) was added to each well and incubated for 60 min at 37° C. Detection was carried out by adding 30 μl of tetramethylbenzidine (TMB) substrate (Pierce) followed by neutralization with 30 μl of 0.2 M H₂SO₄. The absorbance was read at 450 nm.

[3] = biological target: T3, FcγRIIIA (soluble receptor used as analyte in the BIAcore runs) (human, UniProt P08637 17-208); assay: SPR (BIAcore 3000), IgG amine-coupled to CM5, soluble FcγRIIIA injected; steady-state isotherm; Run 3
T3 construct: extracellular domain; The BIAcore methods only say 'FcγRIIIA'; also called FcγIIIA
T3 sequence (P08637 17-208): as the sequence (P08637 17-208 limits assumed) above
Procedure: (§1) FcγRIIIA was serially diluted in 0.01 M HEPES pH 7.4 containing 0.15 M NaCl, 3 mM EDTA and 0.005% P20, at concentrations ranging from 16 uM down to 7.8 nM. Duplicate injections of each concentration were made. All binding experiments were performed at 25° C., and at a flow rate of 10 uL/min. Binding was monitored for 25 min. Following each injection of FcγRIIIA, the IgG surfaces were regenerated with a 30 sec. pulse of 5 mM HCl. FcγRIIIA was also passed over a blank reference cell which is connected, in series, to the IgG-containing flow cells. The steady-state binding curves were also corrected for injection artifacts by subtraction of buffer injections. This doubly-corrected data was then fit to a steady-state isotherm provided by the instrument manufacturer (Pharmacia Biosensor, Uppsala, Sweden) to derive the respective equilibrium binding constants (KD). Separately, a Scatchard plot of the Req data from each IgG surface was constructed to confirm the results of the binding isotherms.

[4] = biological target: T3, FcγRIIIA (soluble receptor used as …); assay: SPR (BIAcore 3000), IgG amine-coupled to CM5, soluble FcγRIIIA injected; Scatchard plot of Req; Run 3
Procedure: as §1

[5] = biological target: T3, FcγRIIIA (soluble receptor used as …); assay: SPR (BIAcore 3000), Run 3; calculated from isotherm KD values against wild type 3F2
Procedure: as §1

Binder | EC50 (read off the curve) [1] | binding result [2] | Kd [3] | Kd [4] | Fold increase over WT [5]
B1 | ~0.2 µg/mL | binds | 15600 nM | 14200 nM | 
B2 | ~0.05 µg/mL | binds | 1770 nM | 1680 nM | 8.8 fold
B3 | ~0.05 µg/mL | binds | 158 nM | 162 nM | 99 fold
